Measurements from patent US20240247080A1, “GLP1/GIP/NPY2 RECEPTOR TRIPLE AGONISTS” (Boehringer Ingelheim International GmbH, priority 2022, published 2024).
Starred links: 1 amine or outer side, 2 acyl side, 3 side chain; linkers in the order of their positions; H or OH if unused. Non-standard residues stand in square brackets, D forms with d. Groups on a side chain read outwards from the residue. No end group written: not given here. *: point of attachment. C20 diacid = O=C(O)CCCCCCCCCCCCCCCCCCC(=O)*; C18 diacid = O=C(O)CCCCCCCCCCCCCCCCC(=O)*; γGlu = O=C(O)[C@H](CCC(=O)[*:2])N[*:1]; εLys = N[C@@H](CCCCN[*:1])C(=O)[*:2]; AEEA = NCCOCCOCC(=O)O; Aib = CC(C)(N)C(=O)O; Ahx = NCCCCCC(=O)O

T1: human GIP receptor (human, UniProt P48546 22-466)
T1 sequence (looked up): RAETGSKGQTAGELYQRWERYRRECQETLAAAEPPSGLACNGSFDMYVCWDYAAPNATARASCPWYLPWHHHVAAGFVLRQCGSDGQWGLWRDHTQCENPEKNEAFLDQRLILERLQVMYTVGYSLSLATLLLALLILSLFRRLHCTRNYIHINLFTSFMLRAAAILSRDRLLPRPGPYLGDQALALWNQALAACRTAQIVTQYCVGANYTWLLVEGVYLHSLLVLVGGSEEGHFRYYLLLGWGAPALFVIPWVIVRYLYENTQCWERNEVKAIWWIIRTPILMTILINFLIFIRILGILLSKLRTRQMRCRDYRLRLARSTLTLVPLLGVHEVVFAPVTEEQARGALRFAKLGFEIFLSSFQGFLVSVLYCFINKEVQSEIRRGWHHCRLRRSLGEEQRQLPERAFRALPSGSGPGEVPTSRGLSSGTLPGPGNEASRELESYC

T2: human neuropeptide Y2 receptor (human, UniProt P49146 1-381)
T2 sequence (looked up): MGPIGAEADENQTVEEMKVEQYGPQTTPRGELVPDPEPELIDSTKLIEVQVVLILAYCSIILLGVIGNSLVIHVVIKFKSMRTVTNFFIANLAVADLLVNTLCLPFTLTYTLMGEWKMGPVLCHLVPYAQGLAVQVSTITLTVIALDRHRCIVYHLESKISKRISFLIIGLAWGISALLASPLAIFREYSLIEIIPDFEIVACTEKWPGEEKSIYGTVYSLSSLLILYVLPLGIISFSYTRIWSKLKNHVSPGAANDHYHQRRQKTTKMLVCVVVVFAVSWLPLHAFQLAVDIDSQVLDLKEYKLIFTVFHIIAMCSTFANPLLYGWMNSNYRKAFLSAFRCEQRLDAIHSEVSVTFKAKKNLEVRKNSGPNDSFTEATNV

B1: Compound 289 (peptide)
peptide: YXEGTFTSDYSIXLEKQAQXAFVEWLIKGGPSEGASLRHYYNWLTRQRY
modifications: Aib at 2, 13, 20; K28 side chain acylated with C20DA-gGlu-gGlu-gGlu-gGlu-gGlu; C-terminal amide (NH2)
B2: Compound 292 (peptide)
peptide: B1 peptide
modifications: Aib at 2, 13, 20; K28 side chain acylated with C18DA-gGlu-gGlu-gGlu-gGlu-gGlu; C-terminal amide (NH2)
B3: Compound 293 (peptide)
peptide: B1 peptide
modifications: Aib at 2, 13, 20; K28 side chain acylated with C18DA-gGlu-Glu-gGlu-gGlu-gGlu-gGlu-eLys (so in the source); C-terminal amide (NH2)

Tests used:
Assay in all cases: cell-based or functional assay
human GLP-1 receptor = human GLP-1 receptor (human, UniProt P43220 24-463)
human GIP receptor = biological target: T1, human GIP receptor
[1] = biological target: T2, human neuropeptide Y2 receptor

Row | Binder | EC50 hGLP1R 0.5% hP (CreLuc) (human GLP-1 receptor) | EC50 hGLP1R 100% hP (CreLuc) (human GLP-1 receptor) | EC50 hGIPR 0.5% hP (CreLuc) (human GIP receptor) | EC50 hGIPR 100% hP (CreLuc) (human GIP receptor) | EC50 hNPY2R 0.5% hP (CreLuc) [1] | EC50 hNPY2R 100% hP (CreLuc) [1]
1 | Y[Aib]EGTFTSDYSI[Aib]LEKQAQ[Aib]EFVEWLIK([Ahx-γGlu-γGlu-γGlu-γGlu-γGlu-γGlu-C18 diacid])GGPSEGASLRHYYNWLTRQRY-NH2 (also: TFA salt) [Compound 279] | 0.72 nM | 13.4 nM | 0.71 nM | 1.76 nM | 32.4 nM | 103 nM
2 | Y[Aib]EGTFTSDYSI[Aib]LEKQAE[Aib]AFVEWLIK([γGlu-γGlu-γGlu-γGlu-C20 diacid])GGPSEGASLRHYYNWLTRQRY-NH2 (also: TFA salt) [Compound 280] | 0.44 nM | 14.7 nM | 0.38 nM | 2.44 nM | 15.6 nM | 91.4 nM
3 | Y[Aib]EGTFTSDYSI[Aib]LEKQAQ[Aib]AFVQWLIK([Glu-Glu-Glu-Glu-C18 diacid])GGPSEGASLRHYYNWLTRQRY-NH2 (also: TFA salt) [Compound 281] | 0.07 nM | 1.78 nM | 0.28 nM | 0.69 nM | 23 nM | 169 nM
4 | Y[Aib]EGTFTSDYSI[Aib]LEKQAQ[Aib]EFVEWLIK([AEEA-AEEA-γGlu-C18 diacid])GGPSEGASLRHYYNWLTRQRY-NH2 (also: TFA salt) [Compound 282] | 0.51 nM | 24.6 nM | 0.17 nM | 1.03 nM | 17.3 nM | 71.4 nM
5 | Y[Aib]EGTFTSDYSI[Aib]LEKQAQ[Aib]AFIEWLIK([γGlu-γGlu-γGlu-γGlu-C20 diacid])GGPSEGASLRHYYNWLTRQRY-NH2 (also: TFA salt) [Compound 283] | 0.13 nM | 3.86 nM | 0.23 nM | 1.86 nM | 14.7 nM | 104 nM
6 | Y[Aib]EGTFTSDYSI[Aib]LEKQAQ[Aib]EFVEWLIK([AEEA-AEEA-γGlu-γGlu-γGlu-C18 diacid])GGPSEGASLRHYYNWLTRQRY-NH2 (also: TFA salt) [Compound 284] | 0.51 nM | 12.6 nM | 0.33 nM | 0.8 nM | 18.8 nM | 44.7 nM
7 | Y[Aib]EGTFTSDYSI[Aib]LEKQAQ[Aib]AFVEWLIKGGPEEGASLRHYYNWLTRQRY-NH2 (not fully specified (residue 28); also: TFA salt) [Compound 285] | 0.34 nM | 11.6 nM | 1.57 nM | 1.54 nM | 15.8 nM | 48.8 nM
8 | Y[Aib]EGTFTSDYSI[Aib]LEKQAQ[Aib]AFVEWLIKGGPSEGASLRHYYNWLTRQRY-NH2 (not fully specified (residue 28); also: TFA salt) [Compound 286] | 0.27 nM | 5.97 nM | 0.42 nM | 2.03 nM | 15.7 nM | 43.4 nM
9 | Y[Aib]EGTFTSDYSI[Aib]LEKQAQ[Aib]AFVEWLIK([AEEA-AEEA-γGlu-γGlu-γGlu-γGlu-C20 diacid])GGPSEGASLRHYYNWLTRQRY-NH2 (also: TFA salt) [Compound 287] | 0.27 nM | 6.34 nM | 0.34 nM | 2.42 nM | 13.3 nM | 45.9 nM
10 | Y[Aib]EGTFTSDYSI[Aib]LEKQAQ[Aib]AFVEWLIK([εLys-γGlu-γGlu-γGlu-γGlu-γGlu-γGlu-γGlu-C20 diacid])GGPSEGASLRHYYNWLTRQRY-NH2 (also: TFA salt) [Compound 288] | 0.17 nM | 3.21 nM | 0.51 nM | 2.43 nM | 14.3 nM | 36.8 nM
11 | B1 | 0.14 nM | 3.51 nM | 0.7 nM | 1.75 nM | 11.1 nM | 56.3 nM
12 | Y[Aib]EGTFTSDYSI[Aib]LEKQAQ[Aib]AFVEWLIK([εLys-γGlu-Glu-γGlu-γGlu-γGlu-C20 diacid])GGPSEGASLRHYYNWLTRQRY-NH2 (also: TFA salt) [Compound 290] | 0.13 nM | 2.87 nM | 0.89 nM | 1.18 nM | 9.68 nM | 46.3 nM
13 | Y[Aib]EGTFTSDYSI[Aib]LEKQAQ[Aib]AFVEWLIK([Glu-Glu-Glu-Glu-C18 diacid])GGPSEGASLRHYYNWLTRQRY-NH2 (also: TFA salt) [Compound 291] | 0.1 nM | 2.35 nM | 0.18 nM | 0.7 nM | 14.3 nM | 55.3 nM
14 | B2 | 0.13 nM | 5.01 nM | 0.16 nM | 2.46 nM | 19.9 nM | 70 nM
15 | B3 | 0.18 nM | 4.21 nM | 0.26 nM | 1.33 nM | 13.6 nM | 37.5 nM
16 | Y[Aib]EGTFTSDYSI[Aib]LEKQAQ[Aib]AFVEWLIK([γGlu-γGlu-γGlu-γGlu-C18 diacid])GGPSEGASLRHYYNWLTRQRY-NH2 (also: TFA salt) [Compound 294] | 0.08 nM | 3.2 nM | 0.21 nM | 0.89 nM | 14.2 nM | 55.2 nM
17 | Y[Aib]EGTFTSDYSI[Aib]LEKQAQ[Aib]AFVEWLIKGGPSEGASLRHYYNWLTRQRY-NH2 (not fully specified (residue 28); also: TFA salt) [Compound 295] | 0.14 nM | 3.53 nM | 0.3 nM | 0.98 nM | 10.9 nM | 30.2 nM
18 | Y[Aib]EGTFTSDYSI[Aib]LEKQAQ[Aib]AFVEWLIKGGPSEGASLRHYYNWLTRQRY-NH2 (not fully specified (residue 28); also: TFA salt) [Compound 296] | 0.11 nM | 3.5 nM | 1.39 nM | 1.11 nM | 14.1 nM | 56.5 nM
19 | Y[Aib]EGTFTSDYSI[Aib]LEKQAQ[Aib]AFVEWLIK([AEEA-AEEA-γGlu-γGlu-γGlu-γGlu-C18 diacid])GGPSEGASLRHYYNWLTRQRY-NH2 (also: TFA salt) [Compound 297] | 0.12 nM | 3.74 nM | 0.25 nM | 0.93 nM | 14.4 nM | 40.5 nM
